Target: T1, DEN4-80E (Dengue virus type 4, strain H241 …, UniProt Q58HT7)
T1 construct: Envelope (E) protein of dengue virus serotype 4, strain H241, truncated form: 80% of the N-terminal of the E protein; also called DEN-80E of DENV4; truncated envelope protein of DENV4; source: recombinant E protein, component of the tetravalent dengue subunit vaccine V180 (Merck and Co. Inc.)
Assay: BLI; Octet RED96 epitope binning: first mAb (30 ug/ml) captured on protein A sensor for 600 s, blocking antibody (200 ug/ml) 300 s, DEN4-80E loaded at 30 ug/ml for 300 s, then second mAb (d462, 5H2, d559, d182)
Settings: both partners purified

T1 sequence (Q58HT7 whole entry, looked up, the tested form may be a part): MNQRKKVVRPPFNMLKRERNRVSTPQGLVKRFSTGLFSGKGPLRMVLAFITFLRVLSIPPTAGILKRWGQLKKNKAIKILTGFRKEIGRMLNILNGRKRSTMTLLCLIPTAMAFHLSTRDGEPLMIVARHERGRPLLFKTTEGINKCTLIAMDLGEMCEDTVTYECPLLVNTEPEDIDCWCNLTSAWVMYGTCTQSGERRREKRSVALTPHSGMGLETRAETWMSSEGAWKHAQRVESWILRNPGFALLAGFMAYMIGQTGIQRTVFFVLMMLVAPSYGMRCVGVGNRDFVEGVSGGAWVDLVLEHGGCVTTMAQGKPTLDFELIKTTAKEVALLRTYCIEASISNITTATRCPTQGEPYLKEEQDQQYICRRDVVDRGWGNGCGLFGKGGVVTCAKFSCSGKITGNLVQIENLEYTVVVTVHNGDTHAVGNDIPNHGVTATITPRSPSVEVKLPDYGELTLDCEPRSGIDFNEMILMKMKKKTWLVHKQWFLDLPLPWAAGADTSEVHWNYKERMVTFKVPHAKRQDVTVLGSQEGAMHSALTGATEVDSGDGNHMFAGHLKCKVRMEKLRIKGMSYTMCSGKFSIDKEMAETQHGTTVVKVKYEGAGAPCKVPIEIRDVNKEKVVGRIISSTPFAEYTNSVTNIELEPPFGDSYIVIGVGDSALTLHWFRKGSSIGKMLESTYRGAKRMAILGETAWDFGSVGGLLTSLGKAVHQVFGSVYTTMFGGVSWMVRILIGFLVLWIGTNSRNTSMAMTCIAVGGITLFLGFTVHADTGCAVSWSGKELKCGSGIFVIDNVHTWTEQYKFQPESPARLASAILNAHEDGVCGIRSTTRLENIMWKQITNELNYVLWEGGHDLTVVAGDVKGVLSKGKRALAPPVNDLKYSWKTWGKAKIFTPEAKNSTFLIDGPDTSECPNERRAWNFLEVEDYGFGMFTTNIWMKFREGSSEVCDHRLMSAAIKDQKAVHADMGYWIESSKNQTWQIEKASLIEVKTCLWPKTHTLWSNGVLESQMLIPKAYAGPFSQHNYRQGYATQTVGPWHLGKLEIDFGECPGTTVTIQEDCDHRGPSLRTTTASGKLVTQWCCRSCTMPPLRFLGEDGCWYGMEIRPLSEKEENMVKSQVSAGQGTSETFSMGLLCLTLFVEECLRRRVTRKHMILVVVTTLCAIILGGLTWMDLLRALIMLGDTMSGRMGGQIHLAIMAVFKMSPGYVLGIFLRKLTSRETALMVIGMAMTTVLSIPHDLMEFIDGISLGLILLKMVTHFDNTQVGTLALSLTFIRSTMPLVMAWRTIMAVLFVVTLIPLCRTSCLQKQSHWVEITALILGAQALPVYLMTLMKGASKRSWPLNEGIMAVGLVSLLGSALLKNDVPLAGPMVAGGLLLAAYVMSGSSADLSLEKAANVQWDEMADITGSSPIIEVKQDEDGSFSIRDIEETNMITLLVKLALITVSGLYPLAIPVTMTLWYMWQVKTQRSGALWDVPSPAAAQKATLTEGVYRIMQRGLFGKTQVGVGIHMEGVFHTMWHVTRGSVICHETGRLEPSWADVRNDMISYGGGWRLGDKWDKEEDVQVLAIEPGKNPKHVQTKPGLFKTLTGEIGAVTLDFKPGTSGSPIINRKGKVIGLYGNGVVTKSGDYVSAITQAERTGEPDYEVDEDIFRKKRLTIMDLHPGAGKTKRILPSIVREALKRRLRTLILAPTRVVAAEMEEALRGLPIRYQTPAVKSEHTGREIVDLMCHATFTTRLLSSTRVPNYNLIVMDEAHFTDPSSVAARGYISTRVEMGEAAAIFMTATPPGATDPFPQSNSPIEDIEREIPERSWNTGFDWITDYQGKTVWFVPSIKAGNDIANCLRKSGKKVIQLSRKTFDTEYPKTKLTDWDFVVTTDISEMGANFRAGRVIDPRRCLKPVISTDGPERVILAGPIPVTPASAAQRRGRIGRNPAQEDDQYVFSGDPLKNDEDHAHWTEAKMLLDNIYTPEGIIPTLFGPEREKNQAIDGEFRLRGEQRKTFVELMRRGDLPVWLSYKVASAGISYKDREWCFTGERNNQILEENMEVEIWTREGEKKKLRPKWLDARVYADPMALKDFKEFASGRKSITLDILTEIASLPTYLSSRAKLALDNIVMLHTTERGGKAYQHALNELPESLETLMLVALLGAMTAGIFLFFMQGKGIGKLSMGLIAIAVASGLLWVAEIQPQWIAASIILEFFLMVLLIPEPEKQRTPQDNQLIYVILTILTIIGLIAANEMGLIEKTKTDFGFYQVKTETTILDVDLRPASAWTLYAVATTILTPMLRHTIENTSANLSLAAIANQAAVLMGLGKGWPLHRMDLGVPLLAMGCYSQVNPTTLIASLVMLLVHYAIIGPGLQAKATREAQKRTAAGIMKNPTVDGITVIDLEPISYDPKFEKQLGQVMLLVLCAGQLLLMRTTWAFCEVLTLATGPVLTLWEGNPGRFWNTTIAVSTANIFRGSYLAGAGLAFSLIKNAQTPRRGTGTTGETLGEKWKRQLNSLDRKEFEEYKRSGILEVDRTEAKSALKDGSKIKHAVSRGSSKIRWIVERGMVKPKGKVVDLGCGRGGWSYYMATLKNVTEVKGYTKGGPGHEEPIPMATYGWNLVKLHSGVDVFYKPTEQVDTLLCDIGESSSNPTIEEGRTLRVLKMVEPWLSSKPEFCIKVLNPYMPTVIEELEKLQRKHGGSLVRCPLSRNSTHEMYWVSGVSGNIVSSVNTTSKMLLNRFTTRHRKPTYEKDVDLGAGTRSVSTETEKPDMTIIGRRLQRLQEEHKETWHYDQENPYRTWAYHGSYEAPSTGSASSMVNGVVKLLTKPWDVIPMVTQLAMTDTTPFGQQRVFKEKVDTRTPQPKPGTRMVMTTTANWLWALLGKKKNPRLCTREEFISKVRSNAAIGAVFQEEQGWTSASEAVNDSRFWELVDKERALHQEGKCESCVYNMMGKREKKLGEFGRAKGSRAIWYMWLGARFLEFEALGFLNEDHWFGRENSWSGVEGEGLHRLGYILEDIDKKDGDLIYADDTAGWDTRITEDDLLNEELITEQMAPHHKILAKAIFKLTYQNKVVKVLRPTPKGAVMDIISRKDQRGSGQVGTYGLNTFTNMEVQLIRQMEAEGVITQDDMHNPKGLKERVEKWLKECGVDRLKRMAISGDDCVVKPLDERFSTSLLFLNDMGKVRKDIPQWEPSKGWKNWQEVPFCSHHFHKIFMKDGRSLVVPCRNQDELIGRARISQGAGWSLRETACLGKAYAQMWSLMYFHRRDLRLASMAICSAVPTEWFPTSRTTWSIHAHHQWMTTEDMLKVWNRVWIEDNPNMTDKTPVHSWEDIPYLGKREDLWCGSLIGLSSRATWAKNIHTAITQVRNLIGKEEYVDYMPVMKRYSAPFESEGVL

B1: chimpanzee antibody 5H2 (antibody, V domains shown)
VH: EVQLLESGPGLVKPSETLSLTCTVSGGSISDFYWSWLRQSPGKGLEWIGYAHSRVSAYYNPSLKSRVTISVDTSKNQISLRLSAVTAADTALYYCARQGTGTTGVSEDSFDLWGQGTKVIVSL
VL: ELQMTQSPSSLSASVGDRVTITCRASQDISIRLNWYQQKPGKAPKLLIYDASTLESGVPSRFSGSGSGTDFTLTISSLQPEDFATYYCQQFNSYPLTFGGGTKVEIK
notes: also called mAb 5H2
  binding result: binds

Reference: paper PMC6553876 (PLoS Pathogens, 2019)
